From patent US20250263490A1 (VIB VZW, published 2025)
Where a chain is given by its changes, count along the chain named. Read-outs that look alike come from different tables or passages of the source.

T1: E148R
T1 construct: also called human CI-M6PR Dom1-3His6 E148F
T1 chain: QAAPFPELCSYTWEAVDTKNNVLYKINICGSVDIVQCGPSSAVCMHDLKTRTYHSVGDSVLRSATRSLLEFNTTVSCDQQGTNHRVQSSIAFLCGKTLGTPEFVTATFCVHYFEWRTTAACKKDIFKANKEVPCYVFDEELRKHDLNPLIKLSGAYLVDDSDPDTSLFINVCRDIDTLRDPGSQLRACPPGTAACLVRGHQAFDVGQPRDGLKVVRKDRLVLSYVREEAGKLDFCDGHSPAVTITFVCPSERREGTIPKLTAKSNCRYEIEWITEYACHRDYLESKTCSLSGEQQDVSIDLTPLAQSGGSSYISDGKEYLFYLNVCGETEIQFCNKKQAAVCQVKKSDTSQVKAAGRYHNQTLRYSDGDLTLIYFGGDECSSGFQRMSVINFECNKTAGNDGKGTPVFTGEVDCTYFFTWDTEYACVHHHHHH

T2: K89D
T2 construct: also called human CI-M6PR Dom1-3His6 K89D
T2 chain: T1 chain with K49D, F108E

T3: E433R
T3 construct: also called human CI-M6PR Dom1-3His6 E433R
T3 chain: T1 chain with F108E, E393R

T4: D409F
T4 construct: also called human CI-M6PR Dom1-3His6 D409F
T4 chain: T1 chain with F108E, D369F

T5: L197D
T5 construct: also called human CI-M6PR Dom1-3His6 L197D
T5 chain: T1 chain with F108E, L157D

B1: anti-CI-M6PR VHH7 (VHH)
VHH: QVQLQESGGGLVQPGGSLRLSCAASGIIFSDNRMDWYRQAPGKQREWVATLASYGWKTYADSVKGRFTISRDNTKNTVYLRMNSLKPEDTAVYYCKASSPVLNDIWGQGTQVTVSS
notes: His6-tagged (Pichia pastoris)
B2: anti-CI-M6PR VHH1 (VHH)
VHH: QVQLQESGGGLVQPGGSLRLSCVASGFTFDRYWMNWLRQIPGKEIEWVSTINTGGTGTYYDDSVKGRFSISRDDAKNTLYLTMNSLKTEDTAVYYCARGATYYRGNSAIRGQGTQVTVSS
notes: His6-tagged; made in Pichia pastoris, later also in E. coli WK6
B3: anti-CI-M6PR VHH5 (VHH)
VHH: QVQLQESGGGLVQAGGSLKLSCAAAGRTFSRLAMGWFRQAPGKEREFVAAISENGDSIHYSDSVKGRFAVSRDNAKNTVYLQMNSLKPEDTAIYYCAADRAAYYCSGSGCYPSRAPAAASYDYWGQGTQVTVSS
notes: as for B2
B4: anti-CI-M6PR VHH8 (VHH)
VHH: QVQLQESGGGLVQAGGSLRLSCEASGRTFNTYNWGWFRQAPGKEREFVAAIRWSSSKTSYADSVKGRFTISRDNAKNTIYLQMNSLKPEDTAVYYCAASIVDFTTNPSHFGSWGQGTQVTVSS
notes: His6-tagged (Pichia pastoris)
B5: anti-CI-M6PR VHH 1H11 (VHH)
VHH: QVQLQESGGGLVQPGGSLRLSCAASGIIFSDNRMDWYRQAPGKQREWVATLASYGWKTYADSVKDRFTISRDNAKNTVNLYMNSLQPEDTAVYYCNSGQYWGQGTQVTVSS
notes: made in E. coli WK6, His-tag purified

Key:
[1] = target: T6, recombinant human domain 1-3His6 of the cation-independent mannose-6-phosphate receptor (human, UniProt P11717 41-467); test: ELISA on coated antigen (100 ng), anti-VHH-HRP, A450
T6 construct: Biotinylated (NHS-PEG4-biotin) for BLI; Glycosylated; also called hDom1-3His6; hCI-M6PRD1-D3
Procedure: (§1) To determine the effect of site-directed mutations, an ELISA was performed. To this end, 100 ng of each successfully purified mutant was coated per well on Nunc Maxisorp plates in 50 mM MES, 150 mM NaCl, pH 6.5 buffer overnight at 4° C. […] Coating-only controls were included for background correction. […] Reactions were stopped after five minutes using a 2N H₂SO₄ solution and plates were read at 450 nm, with a 655 nm background correction. Data were analyzed using the GraphPad Prism 9 software.

[2] = target: T6, recombinant human domain 1-3His6 of the …; test: as above; remark: listed apart in the source
Procedure: as §1

E148R = target: T1, E148R; test: ELISA on coated antigen (100 ng; labelled E148R on the sheet, E148F in the text), anti-VHH-HRP, A450
Procedure: as §1

K89D = target: T2, K89D; test: ELISA on coated antigen (100 ng), anti-VHH-HRP, A450
Procedure: as §1

E433R = target: T3, E433R; test: as above
Procedure: as §1

D409F = target: T4, D409F; test: as above
Procedure: as §1

L197D = target: T5, L197D; test: as above
Procedure: as §1

Row | Binder | EC50 (read off the curve) [1] | EC50 (read off the curve) [2] | EC50 (read off the curve) (E148R) | EC50 (read off the curve) (K89D) | EC50 (read off the curve) (E433R) | EC50 (read off the curve) (D409F) | EC50 (read off the curve) (L197D)
1 | B1 | ~0.3 nM | ~0.3 nM | – | – | – | – | –
2 | B2 | ~10 nM | ~10 nM | – | – | – | – | –
3 | B3 | ~2 nM | ~2 nM | ~2 nM | ~2 nM | ~3 nM | ~4 nM | ~4 nM
4 | B4 | ~3 nM | ~3 nM | ~3 nM | ~3 nM | ~3 nM | ~5 nM | ~20 nM
5 | B5 | ~0.4 nM | ~0.4 nM | ~9 nM | ~0.7 nM | ~0.4 nM | ~0.4 nM | ~0.4 nM
